± gives the standard deviation of the averaged measurements.
Test system: Saccharomyces cerevisiae
Test: protein stability index of tFT-peptide fusion (C-terminal peptide) (PSI (0-1 scale)); higher = more stable (slower turnover)
Conditions: genetic background: wild type; temperature: 30 C
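Also: PSI is a weighted mean of sequencing reads over stability bins, variants kept only with over 10 reads, mCherry proximal and sfGFP distal, peptide attached via GGGS linker.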

Sequence | protein stability index
PWRPRMAGVDYR | 0.867 ± 0.13
SPPPLDSFPFIT | 0.659 ± 0.051
GPGFRSGVELVW | 0.759 ± 0.069
ACPDARNAGTQR | 0.708 ± 0.022
PPSAPPSPPHPP | 0.612 ± 0.011
AGVVARTRRDGG | 0.708 ± 0.035
CLAAHARFSLRL | 0.65 ± 0.05
LHRRIPFPTQAL | 0.567 ± 0.017
SSSPLPPLRLCL | 0.743 ± 0.041
PFIPQPFPPLCS | 0.709 ± 0.075
SGPTPCRSPRLL | 0.636 ± 0.051
LPERASQARGRP | 0.694 ± 0.17
PPLSSSALPARS | 0.692 ± 0.011
RGWGGGRKVSVG | 0.652 ± 0.036
GGGLSWARRSPS | 0.683 ± 0.069
SILLPLPRLLPC | 0.606 ± 0.018
WELVYLASLVQQ | 0.666 ± 0.055
SGSTRTEDDGAR | 0.652 ± 0.038
FPWPDLPSLLPQ | 0.8 ± 0.14
GVGGFLGVVGVG | 0.5857 ± 0.0019
RESTKNETSGKK | 0.632 ± 0.04
RQSITIAQPGRP | 0.643 ± 0.014
RQKEVSISYCWI | 0.646 ± 0.12
AGSLPLLYPSLR | 0.745 ± 0.015
PPPPPLPPRSCL | 0.703 ± 0.013
GAGSGTRQPKPR | 0.617 ± 0.0076

Sequence | protein stability index
HKHDAVIIGREC | 0.7024 ± 0.0042
PPPPPPPHSPLS | 0.685 ± 0.04
VCLFPDTMSWDC | 0.803 ± 0.075
KTALWQPNCKTD | 0.655 ± 0.011
VPPDTAPPPPRR | 0.6994 ± 0.0055
HSLRLPPSVHFP | 0.6797 ± 0.004
CCDWLFCVGVAG | 0.558 ± 0.0079
SAWGLVLVGSWG | 0.602 ± 0.011
PLAPPPLSPSPI | 0.7873 ± 0.0059
FPPLFPLSTFLL | 0.56 ± 0.04
WSVVRGGGCGAR | 0.697 ± 0.028
DPLKSFDAVRQD | 0.617 ± 0.06
EPRVGCVGFGIT | 0.638 ± 0.013
VWVSHPWYMAFL | 0.618 ± 0.066
RCRGTEGWLDSG | 0.63 ± 0.009
MITRPASKYLVK | 0.6221 ± 0.0052
PPGPPPSSPPPP | 0.73 ± 0.024
CVCAIVDGGTFG | 0.723 ± 0.07
VSLLIPVGVYPR | 0.667 ± 0.015
PLASRPHPLPPP | 0.671 ± 0.02
PPPPFLLPPLLD | 0.707 ± 0.012
GSGRNKGLWRIW | 0.725 ± 0.04
PPPPPALPSPPP | 0.631 ± 0.025
LVGRVGAVAGPA | 0.691 ± 0.028
PPLCRSFPPASL | 0.791 ± 0.061
RGRGRISGSWGT | 0.718 ± 0.013

Sequence | protein stability index
CLALLSYLGFTF | 0.675 ± 0.069
FFSFTTPHLSFA | 0.688 ± 0.054
RRSLKIQKNMKR | 0.686 ± 0.083
ARSSHVLQRSKV | 0.634 ± 0.018
PPRPPLPPTLPP | 0.6973 ± 0.0026
GAVCRRVWVGSW | 0.674 ± 0.0089
PALLTICRTSLP | 0.64 ± 0.00076
GGLACTLAAFYL | 0.733 ± 0.047
SKNLKQTQKKKT | 0.808 ± 0.069
TRETKKSIKKQN | 0.673 ± 0.058
VRPCLYPCSRTV | 0.708 ± 0.03
LPLCSPPAPPSS | 0.666 ± 0.026
DLGRRRVGPKGA | 0.717 ± 0.024
RSSFCGVRAWLA | 0.704 ± 0.078
AVSAGQASPGRA | 0.681 ± 0.061
RPGRSDRCLRWS | 0.673 ± 0.017
NLRVANLAQRTE | 0.703 ± 0.05
LYPGYIVVANYK | 0.661 ± 0.032
QPGTRRNNHIQV | 0.704 ± 0.026
PPPPANVSHHAP | 0.593 ± 0.073
VCRGRGVEGIGW | 0.695 ± 0.12
GRKIIIRKNKIK | 0.613 ± 0.05
RVQLTLKGTGVT | 0.629 ± 0.029
NTMVPPTGSGNA | 0.732 ± 0.13
GPPTKLTLNQQK | 0.6286 ± 0.00082
GCLHVVGGVCLG | 0.69 ± 0.048

Sequence | protein stability index
GLGGRGGAVGEW | 0.67252 ± 0.0004
SCPPSARLSNTC | 0.7506 ± 0.00063
LLPFDTYPPTSP | 0.695 ± 0.036
YCGSVCRPYSYL | 0.695 ± 0.057
TLWENEKNNKHG | 0.705 ± 0.024
TALQNAAPRTAS | 0.73 ± 0.11
KQNQKKREITAG | 0.664 ± 0.055
LFPPAFSAFLPF | 0.725 ± 0.024
RLDDFSALPPRY | 0.781 ± 0.064
IETQKNNKLRRL | 0.699 ± 0.015
RKRKEKSLKAKL | 0.784 ± 0.084
APPSPTSPPTPP | 0.642 ± 0.1
SRGSTGERGRGK | 0.669 ± 0.027
TKRQKEKKKNKE | 0.735 ± 0.042
PDRQVTAFPCFW | 0.6787 ± 0.0051
RVSVFILGWFRD | 0.532 ± 0.018
SLREEATLVRAR | 0.563 ± 0.019
QKPKDKKKRTKE | 0.679 ± 0.05
MVGASFAILGFI | 0.699 ± 0.014
GVWAVGGGGGGR | 0.665 ± 0.069
PNPPYFPSPGRS | 0.74 ± 0.044
PPRPRPPPSPYH | 0.667 ± 0.011
YHDVRSLGPSRT | 0.666 ± 0.04
LLLARWASFIMS | 0.685 ± 0.01
VWLFAESFCGCV | 0.597 ± 0.036
LPTSPMSCHTLT | 0.76 ± 0.088

Sequence | protein stability index
LPPPRPASPGSP | 0.642 ± 0.051
IKVNAVAWLFGS | 0.582 ± 0.032
RPDSGFPLRGSS | 0.75 ± 0.098
WFDWLAIAFYLT | 0.526 ± 0.014
MLLLWRVPQCGE | 0.638 ± 0.055
MLPPRRAPFPPP | 0.735 ± 0.018
SSSLSRLIPRDV | 0.774 ± 0.062
LFWFSRVVCMSF | 0.564 ± 0.048
PPPPSPPPPSTT | 0.751 ± 0.08
YPPLPVRPLVLL | 0.515 ± 0.0056
DGGSEIWGWDGT | 0.743 ± 0.12
KIKVKTKKWNIK | 0.681 ± 0.018
SAVARVGDVIAV | 0.613 ± 0.059
SKLVSPGVPRTP | 0.78 ± 0.043
PPPPPPRPPLRP | 0.727 ± 0.012
PVLPPLLPLPCL | 0.644 ± 0.044
PHTPARSLPPSR | 0.6473 ± 0.0047
QLGRVSRLVGVC | 0.537 ± 0.0081
PPAPRLPPPLPP | 0.629 ± 0.021
KKRREKRTEKKQ | 0.661 ± 0.027
VERRTDRNLGSV | 0.645 ± 0.007
FPPIDLPPPSPS | 0.687 ± 0.027
RVGGGRDVRGGG | 0.723 ± 0.042
GVQDEERYSRSE | 0.6563 ± 0.0063
PSLLPPRVCRPS | 0.68 ± 0.089
NKFLRSVVRKHE | 0.671 ± 0.011

Sequence | protein stability index
PSGGSQSLGRLG | 0.634 ± 0.034
PPATQSPPLPPC | 0.766 ± 0.037
RRAVLDSPSRRY | 0.786 ± 0.031
PAAPLPPTPPPP | 0.708 ± 0.0082
EVFGAGRNDPGS | 0.689 ± 0.018
SPLSDPPPYRPP | 0.591 ± 0.028
PACSPLPPLPLS | 0.7 ± 0.018
TLGTSPPPAYLS | 0.638 ± 0.013
ALPLPAPSSIPS | 0.712 ± 0.029
LATGCVGVRGHE | 0.719 ± 0.023
SPGLLPLALFSL | 0.678 ± 0.14
GGCSCLGVGCLS | 0.675 ± 0.045
QGRPPADRATAV | 0.755 ± 0.029
WVGSWYVATGEA | 0.754 ± 0.063
TSGLGYVDCPKL | 0.709 ± 0.033
QKIIKKIQTIVD | 0.697 ± 0.027
KKINKEINKEKM | 0.693 ± 0.022
LPLMVPIPLLLP | 0.648 ± 0.024
ALPRPPSPFSPL | 0.666 ± 0.078
KEEKNEENNKKE | 0.641 ± 0.033
KPQFNLQYTVKI | 0.616 ± 0.025
HNSTKTQSLRGT | 0.719 ± 0.016
RRSVSSRGCLFR | 0.7 ± 0.008
YLYSCVCGVLSN | 0.5472 ± 0.0049
QVFITGHQLCVM | 0.535 ± 0.0064
EIRIISGIDDRR | 0.628 ± 0.077

Sequence | protein stability index
GFRPVVAGIGHS | 0.6632 ± 0.0061
SRPPSPHPLPPP | 0.656 ± 0.027
RRIFTLIARRLW | 0.672 ± 0.013
PPPLTPPPPPPR | 0.725 ± 0.014
DKKKKTKINNKK | 0.698 ± 0.01
VIKRQSERRYLV | 0.587 ± 0.039
GASGGNRTGRRS | 0.681 ± 0.022
WRAVVVSGTVAY | 0.578 ± 0.025
RRRKGTKNMQSK | 0.727 ± 0.061
RQIPAQAVKHVL | 0.588 ± 0.02
KPKKKNPREKPV | 0.669 ± 0.064
VVGQGYDSGIRY | 0.724 ± 0.024
PPPPSPPLHRPP | 0.738 ± 0.016
GGLWLCFVPEVM | 0.563 ± 0.0077
HVNGQWEANRRT | 0.697 ± 0.048
PPACAHPLFWTL | 0.6499 ± 0.00087
PEGPPRPPLHPS | 0.696 ± 0.019
WCPGVSGVAGVF | 0.703 ± 0.056
LGGTRRVGLALV | 0.685 ± 0.057
EVTVSGEEQRAG | 0.6881 ± 0.0044
RFCRAFSGALSR | 0.805 ± 0.021
RFDGLTTALDSV | 0.669 ± 0.04
TYIRRTICGVLS | 0.587 ± 0.021
SHGLLTLRLALA | 0.586 ± 0.017
SHPPPTVPPAIP | 0.677 ± 0.013
PAPSAPLLRTRP | 0.6702 ± 0.0019

Sequence | protein stability index
WCMMSWMSQFRP | 0.653 ± 0.015
AFSYRAVIALLP | 0.683 ± 0.018
PPPPTSFSPGTL | 0.649 ± 0.043
FVRWCFGRRVLG | 0.619 ± 0.0027
PASASVHPRILC | 0.559 ± 0.05
EAFARGAPNQTS | 0.804 ± 0.066
ICLPPVSDVLIR | 0.676 ± 0.0084
TVVVGHSRLVVG | 0.703 ± 0.027
PFVCPHLPAPPP | 0.791 ± 0.094
PSLRLPVSVPTL | 0.717 ± 0.018
VSLPGTWSSLSA | 0.6554 ± 0.0064
DRPTPPPRSSPL | 0.739 ± 0.058
AAGTVFCRITWD | 0.678 ± 0.022
GLDNNKCTEKKI | 0.665 ± 0.13
AGIDYLSVGGSL | 0.728 ± 0.074
PPTPPPRPLQLP | 0.652 ± 0.0076
VVPLTPPLSAPR | 0.68 ± 0.031
IKTQKNKQITKI | 0.705 ± 0.071
LKRPDVTKKKSI | 0.62 ± 0.077
PTSFPAPNLPPD | 0.669 ± 0.0045

— the supplement of paper PMC10724198
